Test results: patent US7244826B1, “Internalizing ERB2 antibodies” (The Regents of the University of California, priority 1998, dated 2007)
“Also recorded” adds a separate entry of the source. Where two headings read alike, the source gives them in different places.

What was measured:
[1] = target: ErbB2 on cells (SKBR3, SK-OV-3, MCF7 tumor cell lines) (UniProt P04626); experiment: cell-based or functional assay
[2] = target: ErbB2 on cells (SKBR3, SK-OV-3, MCF7 tumor cell lines) (UniProt P04626); experiment: 5.0 × 10^11 phage on about 1.0 × 10^5 SKBR3 cells at 37° C.; surface bound phage eluted with low pH glycine, titered on E. coli TG1
tumor = conditions: cited from earlier work
SK-OV-3 cells [3] = conditions: in vitro; cited from earlier work
SKBR3 cells [4] = assay type: cell-based
SKBR3 cells [5] = assay type: cell-based; remark: listed apart in the source
[6] = target: ErbB2 on cells (SKBR3, SK-OV-3, MCF7 tumor cell lines) (UniProt P04626)
[7] = target: T1, ErbB2 (form in the assay not stated) (UniProt P04626 23-1255); experiment: method and form of ErbB2 not stated
T1 construct: also called c-erbB2

ErbB2 = ErbB2 (Homo sapiens, UniProt P04626); experiment: Epitope mapping competition assay: inhibition of phage binding by soluble scFv
Text: Bound phages were detected with an anti-M13 biotinylated Ab and streptavidin-PE.
Neither of these phage were isolated when the same library was selected on recombinant ErbB2. […] This was confirmed using a competition assay (FIG. 2).

SK-OV-3 cells [8] = experiment: Staining of SK-OV-3 cells by native scFv; assay type: cell-based; conditions: moderate ErbB2 expression
SKBR3 cells [9] = experiment: Staining of SKBR3 cells by phage antibodies or native scFv; conditions: high ErbB2 expression; for staining of SKBR3 cells by phage antibody: phage-displayed
[10] = tested on: normal breast cell line HST578; experiment: Staining of normal breast cell line by phage antibodies or native scFv; assay type: cell-based
[11] = Gel filtration of native scFv; assay type: physicochemical
MCF7 cells = experiment: Staining of MCF7 cells by phage antibodies or native scFv; assay type: cell-based; conditions: low ErbB2 expression
[12] = increasing concentrations of soluble scFv, bound phage by anti-M13 biotinylated Ab and streptavidin-PE, MFI

Molecule C6.5 diabody phage has a cells that had internalized phage (confocal microscopy, SKBR3 cells) [1] of 20%, a phage titer, Lysed cell fraction (internalized phage) [1] of 1.7e+07 and a titer of cell surface bound phage, 1st glycine wash [2] of 1.8e+07. The titer of cell surface bound phage, 2nd glycine wash [2] was 2.8e+06.

In the case of “C6.5 diabody: dimeric scFv from C6.5 V-genes, linker between VH and VL shortened from 15 to 5 amino acids”, the “% ID/g tumor” value (tumor; at 24 hours, diabody study) is given as 6.5 % ID/g, the “tumor:organ AUC ratios” value (tumor; retentions examined over 72 hours, cumulative AUC) is given as “greater than reported for other monovalent or divalent scFv molecules” and the “apparent affinity compared to C6.5 scFv” value (SK-OV-3 cells [3]) is given as “significantly higher”. The “increase of titer after cell lysis from the second glycine wash” value (SKBR3 cells [4]) was greater than 50 fold, the “more phage bound to the cell surface than the anti-Botulinum phage” value (SKBR3 cells [4]) was 30 times and the “phage titer, 1st glycine wash” value (SKBR3 cells [4]) was 1.8 × 10^7. The “phage titer, 2nd glycine wash” value (SKBR3 cells [4]) was 2.8 × 10^6, the “phage titer, lysed cell fraction” value (SKBR3 cells [4]) was 1.7 × 10^7 and the “recovery of phage from inside the cell, higher than for anti-Botulinum phage” value (SKBR3 cells [4]) was 200 fold. The “cells that had internalized phage” value (SKBR3 cells [5]; 37° C.) was roughly 20%.

For “C6.5 phage (anti-ErbB2 C6.5 scFv displayed on phage)”, the phage titer, Lysed cell fraction (internalized phage) [1] was 6.8e+07, the titer of cell surface bound phage, 1st glycine wash [2] was 1.2e+07 and the titer of cell surface bound phage, 2nd glycine wash [2] was 5.2e+06.

irrelevant anti-Botulinum phage (scFv) gave a phage titer, Lysed cell fraction (internalized phage) [1] of 600000, a titer of cell surface bound phage, 1st glycine wash [6] of 600000 and a titer of cell surface bound phage, 2nd glycine wash [6] of 100000.

B1: F5 scFv (native purified soluble scFv) (scFv, not shown: small tags and cut ends)
scFv: QVQLVESGGGLVQPGGSLRLSCAASGFTFRSYAMSWVRQAPGKGLEWVSAISGRGDNTYYADSVKGRFTISRDNSKNTLYLQMNSLRAEDTAVYYCAKMTSNAFAFDYWGQGTLVTVSSGGGGSGGGGSGGGGSQSVLTQPPSVSGAPGQRVTISCTGSSSNIGAGYGVHWYQQLPGTAPKLLIYGNTNRPSGVPDRFSGFKSGTSASLAITGLQAEDEADYYCQFYDSSLSGWVFGGGTKLTVLG
notes: also called 3TF5; scFv-F5
B1 gave a Kd [7] of 320 nM.

B2: F5: internalizing human anti-c-erbB-2 scFv, SEQ ID NO: 1, ATCC plasmid deposit PTA-7843, also referred to as 3TF5 (protein)
scFv: B1 scFv
For B2, the “epitope of F5 and C1 relative to each other” value (ErbB2; competition assay) was “recognize the same epitope”, the “epitope relative to C6.5” value (ErbB2; competition assay) was “a different epitope than C6.5” and the “epitope relative to Genentech anti-ErbB2 antibody 4D5” value (ErbB2; competition assay) was “recognize a different epitope”. The “inhibition of binding of C6.5 phage by soluble scFv” value (ErbB2; [12]) was “not”, the “inhibition of binding of F5 or C1 phage by soluble scFv” value (ErbB2; [12]) was “inhibited” and the “staining of SK-OV-3 cells by native purified scFv” value (SK-OV-3 cells [8]) was “intermediate staining”. For the same molecule, the “staining of SKBR3 cells by native purified scFv” value (SKBR3 cells [9]; native purified scFv) was “intensely stain”, the “staining of SKBR3 cells by phage antibody” value (SKBR3 cells [9]) was “intensely stain” and the “staining of SKBR3 cells by phage antibody” value (SKBR3 cells [9]; listed as 3TF5 phage) was “more intensely than C6.5 phage”. The “staining of normal breast cell line HST578 by native purified scFv” value [10] was “do not stain”, the “oligomeric state by gel filtration” value [11] was “only as a monomer with no appreciable dimerization or aggregation” and the “internalization of native purified scFv by SKBR3 cells (in words)” value (SKBR3 cells [5]) was “efficiently internalized; also recorded: internalized faster than C6.5”. The “internalization of phage by SKBR3 cells at 4° C. (in words)” value (SKBR3 cells [5]) was “no internalization”, the “cells that had internalized phage” value (SKBR3 cells [5]; 37° C.) was “greater than 95%” and the “internalization of phage by SKBR3 cells (in words)” value (SKBR3 cells [5]; 37° C.) was “internalized”. The “staining of MCF7 cells by native purified scFv” value (MCF7 cells; native purified scFv) was “minimal staining” and the “staining of MCF7 cells by phage antibody” value (MCF7 cells; phage-displayed) was “much more intensely then C6.5”.
